B1: #14G9 mAb (mouse anti-sPLA2-GIB monoclonal antibody) (antibody, V domains shown)
VH: QVQLQQPGAELVKPGASVKLSCKASGYTFTNYWIHWVKRRPGQGLEWIGNIDPSDTRTHYNQKFKDKATLAVDKSSSTAYMQLSSLTSEDSAVFYCARQTLYYEALDYWGQGTTLTVSS
VL: DIVMTQSHKLMSTSVGDRVSITCKASQDVSTAVAWYQEKPGQSPKLLIYWASTRHTGVPNRFTGSRSGTDYTLTISSVQAEDLALYYCQQDYSTPPTFGAGTKLELKR
notes: Mouse hybridoma antibody; also called monoclonal antibody 14G9
B2: human FcγRIIB (receptor, UniProt P31994 43-310, looked up)
chain: TPAAPPKAVLKLEPQWINVLQEDSVTLTCRGTHSPESDSIQWFHNGNLIPTHTQPSYRFKANNNDSGEYTCQTGQTSLSDPVHLTVLSEWLVLQTPHLEFQEGETIVLRCHSWKDKPLVKVTFFQNGKSKKFSRSDPNFSIPQANHSHSGDYHCTGNIGYTLYSSKPVTITVQAPSSSPMGIIVAVVTGIAVAAIVAAVVALIYCRKKRISALPGYPECREMGETLPEKPANPTNPDEADKVGAENTITYSLLMHPDALEEPDDQNRI
notes: whole, on cells; also called hFcγRIIB

How the values were obtained:
[1] = target: T1, recombinant human sPLA2-GIB (mature secreted group IB pancreatic phospholipase A2) (human, UniProt P04054 23-148); test: cell-based or functional assay
T1 sequence (P04054 23-148): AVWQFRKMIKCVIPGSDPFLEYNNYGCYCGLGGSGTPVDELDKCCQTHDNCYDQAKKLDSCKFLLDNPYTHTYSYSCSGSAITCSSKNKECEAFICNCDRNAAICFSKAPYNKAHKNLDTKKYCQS

[2] = target: T1, recombinant human sPLA2-GIB (mature …); test: SPR (BIAcore 2000), antibody captured on anti-mouse IgG surface, antigen in solution
Protocol: (§1) The affinity constants (KD) of the pro-sPLA2-IB and sPLA2-IB binding to the #14G9 antibody were determined by surface kinetics on a real-time biosensor surface plasmon resonance assay (BIAcore™). More specifically, the affinity of the antibodies for human pro-sPLA2-IB and sPLA2-IB was measured using a BIAcore® 2000. The antibody was captured on an anti-mouse IgG surface and exposed to various concentrations of recombinant pro-sPLA2-IB and sPLA2-IB protein. Kinetic analysis using BIAevaluation™ software was performed to obtain the association and dissociation rate constants.

[3] = target: T2, recombinant human pro-sPLA2-GIB (human, UniProt P04054 16-148); test: as above
T2 construct: also called pro-sPLA2-IB; proPLA2-GIB
T2 sequence (P04054 16-148): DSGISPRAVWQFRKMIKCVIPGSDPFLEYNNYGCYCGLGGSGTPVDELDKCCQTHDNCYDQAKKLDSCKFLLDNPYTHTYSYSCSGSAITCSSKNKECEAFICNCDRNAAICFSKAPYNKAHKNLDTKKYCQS
Protocol: as §1

[4] = target: T1, recombinant human sPLA2-GIB (mature …); test: competitive ELISA: constant antibody premixed with dilutions of soluble antigen, free antibody caught on antigen-coated plate
Protocol: (§2) Binding affinities of the antibodies to pro-sPLA2-IB and sPLA2-IB were measured by plate-based competition immunoassay. For the competition ELISA, briefly, constant amounts of antibody at different levels were premixed with serial dilutions of antigen protein, human sPLA2-IB or pro-sPLA2-IB, ranging from 0 to 10 µg/ml, and incubated for two hours at room temperature to reach pseudo-binding equilibrium between the antibody and antigen. These solutions were then transferred to 96-well sPLA2-IB or pro-sPLA2-IB pre-coated plates to allow the free-antibody in the mixtures to bind to plate-coated sPLA2-IB or pro-sPLA2-IB. The plates were typically coated with 30 to 100 ng of human sPLA2-IB or pro-sPLA2-IB protein in PBS solution overnight at 4° C. followed by BSA nonspecific blocking. After washing off excess antibody in solution, plate-bound antibodies were detected with an HRP-conjugated goat anti-mouse IgG or IgA polyclonal antibody reagent and developed using colorimetric substrate. The dependency of the signals on the concentrations of antigen in solution was analyzed with a 4-parameter fit analysis using Prism™ software (Graph Pad) and reported as IC50.

[5] = target: T2, recombinant human pro-sPLA2-GIB; test: as above
Protocol: as §2

[6] = target: T1, recombinant human sPLA2-GIB (mature …); test: indirect ELISA: antigen coated on the plate, #14G9 mAb titrated (x axis mAb, Log M, -9.5 to -6.5), OD450 nm readout
Protocol: (§3) Microplate wells were typically coated with 100 ng of recombinant human sPLA2-X, sPLA2-IB or pro-sPLA2-IB in PBS pH 7.5, overnight at 4° C. Sample wells were washed three times with PBS containing 0.05% Tween 20. After final washing, sample wells were treated with blocking solution containing 1% bovine serum albumin (BSA) in PBS buffer for 60 min at room temperature. Following washing with PBS containing 0.05% Tween 20, increasing amounts (10 ng/mL up to 3 μg/mL) of #14G9 mAb were added to antigen-coated wells. and incubated for 120 min at room temperature. Following washing with PBS containing 0.05% Tween 20, the binding of #14G9 mAb was detected with an HRP-conjugated goat anti-mouse IgG or IgA polyclonal antibody reagent and developed using colorimetric substrate. The dependency of the signals on the concentrations of antigen in solution was analyzed with a 4-parameter fit analysis using Prism™ software (Graph Pad) and reported as EC50.

[7] = target: T2, recombinant human pro-sPLA2-GIB; test: indirect ELISA: antigen coated on the plate, #14G9 mAb titrated (x axis mAb, Log M, -9.5 to -6.5), OD450 nm readout; the curve reaches only OD450 about 1.6 at the highest concentration, no upper plateau
Protocol: as §3

[8] = target: T3, immune complex of #2B with sPLA2-GIB (human, UniProt P04054 23-148); test: flow cytometry, antibody-antigen immune complex on CHO cells expressing the receptor
T3 construct: also called immune complexe of #2B; antibody-antigen immune complex
T3 sequence (heavy, as listed by the source, chain 1 of 3): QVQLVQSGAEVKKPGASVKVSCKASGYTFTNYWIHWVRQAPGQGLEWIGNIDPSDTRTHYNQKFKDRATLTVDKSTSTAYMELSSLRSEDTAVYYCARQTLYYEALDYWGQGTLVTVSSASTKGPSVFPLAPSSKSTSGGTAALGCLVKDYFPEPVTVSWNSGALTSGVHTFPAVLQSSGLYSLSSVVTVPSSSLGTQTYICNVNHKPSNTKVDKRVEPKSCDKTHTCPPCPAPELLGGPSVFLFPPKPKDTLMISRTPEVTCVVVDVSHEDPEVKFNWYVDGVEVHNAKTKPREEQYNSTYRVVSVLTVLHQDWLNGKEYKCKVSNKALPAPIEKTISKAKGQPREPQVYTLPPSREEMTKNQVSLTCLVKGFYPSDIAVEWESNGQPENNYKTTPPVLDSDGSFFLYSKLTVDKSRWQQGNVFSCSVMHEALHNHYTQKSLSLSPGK
T3 sequence (light, as listed by the source, chain 2 of 3): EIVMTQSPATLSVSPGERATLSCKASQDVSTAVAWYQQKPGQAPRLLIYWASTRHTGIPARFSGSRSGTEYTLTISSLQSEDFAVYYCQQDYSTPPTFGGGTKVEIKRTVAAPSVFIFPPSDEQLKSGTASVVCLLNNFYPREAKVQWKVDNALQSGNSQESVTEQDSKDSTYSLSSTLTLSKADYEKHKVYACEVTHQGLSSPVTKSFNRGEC
T3 sequence (P04054 23-148, chain 3 of 3): as the sequence (P04054 23-148) above
Protocol: (§4) Antibody-antigen immune complex were generated by co-incubation of 10 µg/ml of humanized antibodies and 5 μg/ml of sPLA2-GIB for 30 min at 37° C. Immune complexes were then incubated with 1×10⁵ CHO cells stably expressing human FcγRs for 30 min on ice. The cells were then washed, detached, fixed, and analyzed by flow cytometry (FACSCalibur; BD Biosciences).
(§5) The binding of monomeric #2B, #2B1 and #2B2 to human FcγRs was tested by flow cytometry by incubating the mAbs with CHO cells stably expressing human FcγRI, FcγRIIA (H131), FcγRIIA(R131), FcγRIIB, FcγRIIIA(F176), FcγRIIIA(V176), FcγRIIIB(NA1), FcγRIIIB(NA2), and FcγRIIIB(SH), (REF P. Bruhns). As presented in FIG. 9, #2B is binding to hFcγRI and hFcγRIIIA(V176) only, whereas no monomeric binding of #2B1 and #2B2 to all tested hFcγRs was observed. Antibody-antigen immune complex was tested by first incubating the mAb with the antigen and then, incubating the immune complexes formed with CHO cells stably expressing human FcγRs. The immune complexe of #2B is binding to all tested hFcγRs, except hFcγRIIB (FIG. 10). Weak binding is observed for immune complex of #2B1 to hFcγRIIIA(V176) (data not shown), whereas no immune complex binding of #2B2 to any tested hFcγRs (data not shown).

[9] = target: immune complex of #2B2 with sPLA2-GIB (human, UniProt P04054 23-148); test: as above
Chain of immune complex of #2B2 with sPLA2-GIB (heavy, as listed by the source, chain 1 of 3): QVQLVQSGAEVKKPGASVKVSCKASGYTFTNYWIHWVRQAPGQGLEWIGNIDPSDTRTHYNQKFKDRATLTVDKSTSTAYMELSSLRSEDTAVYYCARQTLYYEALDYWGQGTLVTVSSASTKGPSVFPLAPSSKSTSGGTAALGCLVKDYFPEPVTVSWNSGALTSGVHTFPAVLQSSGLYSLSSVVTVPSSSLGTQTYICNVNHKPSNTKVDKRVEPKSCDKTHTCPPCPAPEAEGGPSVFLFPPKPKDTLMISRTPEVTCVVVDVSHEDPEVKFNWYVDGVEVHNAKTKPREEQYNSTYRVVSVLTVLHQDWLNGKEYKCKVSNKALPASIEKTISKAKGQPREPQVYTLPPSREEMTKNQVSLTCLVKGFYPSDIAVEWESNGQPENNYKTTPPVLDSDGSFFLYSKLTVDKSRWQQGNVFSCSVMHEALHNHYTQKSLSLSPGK
Chain of immune complex of #2B2 with sPLA2-GIB (light, as listed by the source, chain 2 of 3): as the sequence (light, as listed by the source, chain 2 of 3) above
Chain of immune complex of #2B2 with sPLA2-GIB (P04054 23-148, chain 3 of 3): as the sequence (P04054 23-148) above
Protocol: as §4, §5

Binder | EC50 for the restoration of the sPLA2-IB effect on IL-7 induced phosphoSTAT5 nuclear translocation in human CD4 T cells (75 nM sPLA2-GIB) [1] [ng/mL] | inhibition of sPLA2-IB enzymatic activity, EC50 [1] [nM] | Kd [2] [nM] | Kd [3] [nM] | IC50 [4] [nM] | IC50 [5] [nM] | EC50 [6] [nM] | EC50 [7] [nM] | binding result [8] | binding result [9]
B1 | 2.2 | 2.3 | 0.34 | 174 | 1 | 109 | 6 | 158 | – | –
B2 | – | – | – | – | – | – | – | – | no binding | no binding

Source: patent US20210047432A1 (DIACCURATE, published 2021)
